Laboratory results taken from patent publication US20180193496A1 (PHILOGEN S P A, published 2018).
One block for each binder: values may come before it.

Assays:
[1] = target: T1, catalytic domain of human MMP3 (amino acids 100-273), recombinant (human, UniProt P08254 100-273, biotinylated (in the ELISA)); assay: ELISA on biotinylated catalytic domain, scFv
T1 construct: range 100-273; also called HsMMP3; human MMP3 catalytic domain

[2] = target: T2, recombinant peptide consisting of amino acids 262-534 of tenascin-W (human, UniProt Q9UQP3 262-534); assay: Biacore, tenascin-W 262-534 on a CM-5 chip, scFv
T2 construct: also called recombinant tenascin-W peptide used to isolate the G10 antibody
T2 sequence: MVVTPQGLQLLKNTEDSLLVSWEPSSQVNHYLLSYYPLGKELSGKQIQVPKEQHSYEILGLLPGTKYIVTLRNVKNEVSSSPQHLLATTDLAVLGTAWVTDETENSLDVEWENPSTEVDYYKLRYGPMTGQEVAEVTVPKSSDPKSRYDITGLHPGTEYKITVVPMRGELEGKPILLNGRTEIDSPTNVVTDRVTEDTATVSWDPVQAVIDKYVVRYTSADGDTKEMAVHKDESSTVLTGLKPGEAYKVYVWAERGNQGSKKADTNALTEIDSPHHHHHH
Procedure: A monomeric fraction of the purified G10 antibody was analyzed by surface plasmon resonance (BIAcore, 3000 system). A recombinant peptide consisting of amino acids 262-534 of tenascin-W was covalently coupled to the surface of the CM-5 sensor Chip. Twenty-five microliters of each sample were injected at the flow rate of 10 μL/min. The regeneration of the chip was performed with 5 μL of 10 mM glycine-HCl, pH 2.5 (GE Healthcare).

T1 sequence (P08254 100-273 limits assumed): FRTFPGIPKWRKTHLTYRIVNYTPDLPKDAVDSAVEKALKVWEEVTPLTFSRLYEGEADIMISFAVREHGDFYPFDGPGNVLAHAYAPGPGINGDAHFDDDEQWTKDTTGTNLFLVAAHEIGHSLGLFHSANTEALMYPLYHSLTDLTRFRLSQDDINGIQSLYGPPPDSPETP

binding result [1]: binds
B1: anti-human MMP3 antibody CH01 in scFv format (scFv, V domains shown)
VH: EVQLLESGGGLVQPGGSLRLSCAASGFTFSPYAMSWVRQAPGKGLEWVSAITGQGGVTYYADSVKGRFTISRDNSKNTLYLQMNSLRAEDTAVYYCAKISSFHFDYWGQGTLVTVSS
VL: EIVLTQSPGTLSLSPGERATLSCRASQSVSSHHLAWYQQKPGQAPRLLIYDASSRATGIPDRFSGSGSGTDFTLTISRLEPEDFAVYYCQQPRGAPTTFGQGTKVEIK
notes: The scFv is myc-tagged (detected with anti-myc 9E10); also called scFv(CH01)

binding result [2]: binds
B2: antibody G10 in scFv format (scFv, V domains shown)
VH: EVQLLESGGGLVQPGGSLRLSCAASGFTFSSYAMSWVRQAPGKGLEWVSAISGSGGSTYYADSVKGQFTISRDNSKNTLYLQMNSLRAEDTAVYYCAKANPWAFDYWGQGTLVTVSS
VL: SELTQDPAVSVALGQTVRITCQGDSLRSYYASWYQQKPGQAPVLVIYGKNNRPSGIPDRFSGSSSGNTASLTITGAQAEDEADYYCNSSGSQRSPVVFGGGTKLTVL
notes: The monomeric fraction was used in Biacore
